Source: patent US20220204580A1 (AstraZeneca / MedImmune, published 2022)
Each block holds one binder with its values, some of them ahead of it. Numbered stars: 1 amine (or outer) side, 2 acyl side, 3 side chain; on linkers, the order of the positions; unused ones are H or OH. Bridge positions count the residues as written; N and C are the ends. Square brackets hold non-standard residues; d marks the D form. Side chains are listed from the residue outwards. Ends that are not written are not given here. * marks the point of attachment. C18 diacid = O=C(O)CCCCCCCCCCCCCCCCC(=O)*; γGlu = O=C(O)[C@H](CCC(=O)[*:2])N[*:1]; Aib = CC(C)(N)C(=O)O

Experiments:
[1] = molecular target: T1, human calcitonin receptor (human, UniProt P30988 25-474); assay: cell-based or functional assay
T1 sequence (looked up): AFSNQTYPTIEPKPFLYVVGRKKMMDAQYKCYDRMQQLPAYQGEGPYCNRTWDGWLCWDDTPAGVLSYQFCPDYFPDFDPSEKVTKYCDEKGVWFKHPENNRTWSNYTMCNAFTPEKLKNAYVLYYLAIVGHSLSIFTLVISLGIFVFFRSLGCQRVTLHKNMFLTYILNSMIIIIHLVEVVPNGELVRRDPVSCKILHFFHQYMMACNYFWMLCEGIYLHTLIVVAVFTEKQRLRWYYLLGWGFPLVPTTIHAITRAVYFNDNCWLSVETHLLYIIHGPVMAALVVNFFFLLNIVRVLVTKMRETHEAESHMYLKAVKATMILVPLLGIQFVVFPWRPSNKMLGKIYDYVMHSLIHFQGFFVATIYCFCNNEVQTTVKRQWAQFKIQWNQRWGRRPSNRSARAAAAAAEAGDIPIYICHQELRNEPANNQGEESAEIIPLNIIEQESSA

[2] = molecular target: T2, human amylin receptor (calcitonin receptor co-expressed with receptor activity modifying protein, RAMP3) (human, UniProt P30988 25-474; O60896 24-148); assay: cell-based or functional assay
T2 sequence (looked up) 1: T1 sequence (looked up)
T2 sequence (looked up) 2: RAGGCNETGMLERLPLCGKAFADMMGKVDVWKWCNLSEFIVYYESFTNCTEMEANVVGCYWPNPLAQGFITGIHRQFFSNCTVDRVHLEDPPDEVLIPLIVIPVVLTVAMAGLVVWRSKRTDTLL

B1: Peptide 58 (SEQ ID NO: 58) (peptide)
peptide: K([γGlu-C18 diacid])KCNTATCATQRLANFLVHSS[Aib]NFGPILPPTNVGSNTP-NH2
modifications: disulfide 3-8; N-terminus assumed
SMILES: CC[C@H](C)[C@H](NC(=O)[C@@H]1CCCN1C(=O)CNC(=O)[C@H](Cc1ccccc1)NC(=O)[C@H](CC(N)=O)NC(=O)C(C)(C)NC(=O)[C@H](CO)NC(=O)[C@H](CO)NC(=O)[C@H](Cc1c[nH]cn1)NC(=O)[C@@H](NC(=O)[C@H](CC(C)C)NC(=O)[C@H](Cc1ccccc1)NC(=O)[C@H](CC(N)=O)NC(=O)[C@H](C)NC(=O)[C@H](CC(C)C)NC(=O)[C@H](CCCNC(=N)N)NC(=O)[C@H](CCC(N)=O)NC(=O)[C@@H](NC(=O)[C@H](C)NC(=O)[C@@H]1CSSC[C@H](NC(=O)[C@H](CCCCN)NC(=O)[C@@H](N)CCCCNC(=O)CC[C@H](NC(=O)CCCCCCCCCCCCCCCCC(=O)O)C(=O)O)C(=O)N[C@@H](CC(N)=O)C(=O)N[C@@H]([C@@H](C)O)C(=O)N[C@@H](C)C(=O)N[C@@H]([C@@H](C)O)C(=O)N1)[C@@H](C)O)C(C)C)C(=O)N[C@@H](CC(C)C)C(=O)N1CCC[C@H]1C(=O)N1CCC[C@H]1C(=O)N[C@H](C(=O)N[C@@H](CC(N)=O)C(=O)N[C@H](C(=O)NCC(=O)N[C@@H](CO)C(=O)N[C@@H](CC(N)=O)C(=O)N[C@H](C(=O)N1CCC[C@H]1C(N)=O)[C@@H](C)O)C(C)C)[C@@H](C)O
- EC50 (cAMP production) [1]: 0.065 nM
- EC50 (cAMP production) [2]: 0.071 nM
- Ratio (EC50 hCTR / EC50 hAMYR3) [2]: 1

B4: Peptide 62 (SEQ ID NO: 62) (peptide)
peptide: K([γGlu-C18 diacid])CNTATCATQRLANF[dL]VHSS[Aib]NFGPILPPTNVGSNTY-NH2
modifications: disulfide 2-7; N-terminus assumed
SMILES: CC[C@H](C)[C@H](NC(=O)[C@@H]1CCCN1C(=O)CNC(=O)[C@H](Cc1ccccc1)NC(=O)[C@H](CC(N)=O)NC(=O)C(C)(C)NC(=O)[C@H](CO)NC(=O)[C@H](CO)NC(=O)[C@H](Cc1c[nH]cn1)NC(=O)[C@@H](NC(=O)[C@@H](CC(C)C)NC(=O)[C@H](Cc1ccccc1)NC(=O)[C@H](CC(N)=O)NC(=O)[C@H](C)NC(=O)[C@H](CC(C)C)NC(=O)[C@H](CCCNC(=N)N)NC(=O)[C@H](CCC(N)=O)NC(=O)[C@@H](NC(=O)[C@H](C)NC(=O)[C@@H]1CSSC[C@H](NC(=O)[C@@H](N)CCCCNC(=O)CC[C@H](NC(=O)CCCCCCCCCCCCCCCCC(=O)O)C(=O)O)C(=O)N[C@@H](CC(N)=O)C(=O)N[C@@H]([C@@H](C)O)C(=O)N[C@@H](C)C(=O)N[C@@H]([C@@H](C)O)C(=O)N1)[C@@H](C)O)C(C)C)C(=O)N[C@@H](CC(C)C)C(=O)N1CCC[C@H]1C(=O)N1CCC[C@H]1C(=O)N[C@H](C(=O)N[C@@H](CC(N)=O)C(=O)N[C@H](C(=O)NCC(=O)N[C@@H](CO)C(=O)N[C@@H](CC(N)=O)C(=O)N[C@H](C(=O)N[C@@H](Cc1ccc(O)cc1)C(N)=O)[C@@H](C)O)C(C)C)[C@@H](C)O
- EC50 (cAMP production) [1]: 7.25 nM
- EC50 (cAMP production) [2]: 0.167 nM
- Ratio (EC50 hCTR / EC50 hAMYR3) [2]: 43

B6: Peptide 60 (SEQ ID NO: 60) (peptide)
peptide: K([γGlu-C18 diacid])CNTATCATQRLANFLVHSS[Aib]NFGPIL[dP]PTNVGSNTY-NH2
modifications: disulfide 2-7; N-terminus assumed
SMILES: CC[C@H](C)[C@H](NC(=O)[C@@H]1CCCN1C(=O)CNC(=O)[C@H](Cc1ccccc1)NC(=O)[C@H](CC(N)=O)NC(=O)C(C)(C)NC(=O)[C@H](CO)NC(=O)[C@H](CO)NC(=O)[C@H](Cc1c[nH]cn1)NC(=O)[C@@H](NC(=O)[C@H](CC(C)C)NC(=O)[C@H](Cc1ccccc1)NC(=O)[C@H](CC(N)=O)NC(=O)[C@H](C)NC(=O)[C@H](CC(C)C)NC(=O)[C@H](CCCNC(=N)N)NC(=O)[C@H](CCC(N)=O)NC(=O)[C@@H](NC(=O)[C@H](C)NC(=O)[C@@H]1CSSC[C@H](NC(=O)[C@@H](N)CCCCNC(=O)CC[C@H](NC(=O)CCCCCCCCCCCCCCCCC(=O)O)C(=O)O)C(=O)N[C@@H](CC(N)=O)C(=O)N[C@@H]([C@@H](C)O)C(=O)N[C@@H](C)C(=O)N[C@@H]([C@@H](C)O)C(=O)N1)[C@@H](C)O)C(C)C)C(=O)N[C@@H](CC(C)C)C(=O)N1CCC[C@@H]1C(=O)N1CCC[C@H]1C(=O)N[C@H](C(=O)N[C@@H](CC(N)=O)C(=O)N[C@H](C(=O)NCC(=O)N[C@@H](CO)C(=O)N[C@@H](CC(N)=O)C(=O)N[C@H](C(=O)N[C@@H](Cc1ccc(O)cc1)C(N)=O)[C@@H](C)O)C(C)C)[C@@H](C)O
- EC50 (cAMP production) [1]: 1.03 nM
- EC50 (cAMP production) [2]: 0.096 nM
- Ratio (EC50 hCTR / EC50 hAMYR3) [2]: 11

Second part, the binder after the results:

- EC50 (cAMP production) [1]: 0.654 nM
- EC50 (cAMP production) [2]: 0.099 nM
- Ratio (EC50 hCTR / EC50 hAMYR3) [2]: 7
B2: Peptide 61 (SEQ ID NO: 61) (peptide)
peptide: K([γGlu-C18 diacid])CNTATCATQRLANFLVHSS[Aib]NFGP[dI]LPPTNVGSNTY-NH2
modifications: disulfide 2-7; N-terminus assumed
SMILES: CC[C@@H](C)[C@@H](NC(=O)[C@@H]1CCCN1C(=O)CNC(=O)[C@H](Cc1ccccc1)NC(=O)[C@H](CC(N)=O)NC(=O)C(C)(C)NC(=O)[C@H](CO)NC(=O)[C@H](CO)NC(=O)[C@H](Cc1c[nH]cn1)NC(=O)[C@@H](NC(=O)[C@H](CC(C)C)NC(=O)[C@H](Cc1ccccc1)NC(=O)[C@H](CC(N)=O)NC(=O)[C@H](C)NC(=O)[C@H](CC(C)C)NC(=O)[C@H](CCCNC(=N)N)NC(=O)[C@H](CCC(N)=O)NC(=O)[C@@H](NC(=O)[C@H](C)NC(=O)[C@@H]1CSSC[C@H](NC(=O)[C@@H](N)CCCCNC(=O)CC[C@H](NC(=O)CCCCCCCCCCCCCCCCC(=O)O)C(=O)O)C(=O)N[C@@H](CC(N)=O)C(=O)N[C@@H]([C@@H](C)O)C(=O)N[C@@H](C)C(=O)N[C@@H]([C@@H](C)O)C(=O)N1)[C@@H](C)O)C(C)C)C(=O)N[C@@H](CC(C)C)C(=O)N1CCC[C@H]1C(=O)N1CCC[C@H]1C(=O)N[C@H](C(=O)N[C@@H](CC(N)=O)C(=O)N[C@H](C(=O)NCC(=O)N[C@@H](CO)C(=O)N[C@@H](CC(N)=O)C(=O)N[C@H](C(=O)N[C@@H](Cc1ccc(O)cc1)C(N)=O)[C@@H](C)O)C(C)C)[C@@H](C)O

- EC50 (cAMP production) [1]: 0.375 nM
- EC50 (cAMP production) [2]: 0.076 nM
- Ratio (EC50 hCTR / EC50 hAMYR3) [2]: 5
B3: Peptide 63 (SEQ ID NO: 63) (peptide)
peptide: K([γGlu-C18 diacid])CNTATCATQRLANFLVHSS[Aib]NFGPILPPTRVGSNTY-NH2
modifications: disulfide 2-7; N-terminus assumed
SMILES: CC[C@H](C)[C@H](NC(=O)[C@@H]1CCCN1C(=O)CNC(=O)[C@H](Cc1ccccc1)NC(=O)[C@H](CC(N)=O)NC(=O)C(C)(C)NC(=O)[C@H](CO)NC(=O)[C@H](CO)NC(=O)[C@H](Cc1c[nH]cn1)NC(=O)[C@@H](NC(=O)[C@H](CC(C)C)NC(=O)[C@H](Cc1ccccc1)NC(=O)[C@H](CC(N)=O)NC(=O)[C@H](C)NC(=O)[C@H](CC(C)C)NC(=O)[C@H](CCCNC(=N)N)NC(=O)[C@H](CCC(N)=O)NC(=O)[C@@H](NC(=O)[C@H](C)NC(=O)[C@@H]1CSSC[C@H](NC(=O)[C@@H](N)CCCCNC(=O)CC[C@H](NC(=O)CCCCCCCCCCCCCCCCC(=O)O)C(=O)O)C(=O)N[C@@H](CC(N)=O)C(=O)N[C@@H]([C@@H](C)O)C(=O)N[C@@H](C)C(=O)N[C@@H]([C@@H](C)O)C(=O)N1)[C@@H](C)O)C(C)C)C(=O)N[C@@H](CC(C)C)C(=O)N1CCC[C@H]1C(=O)N1CCC[C@H]1C(=O)N[C@H](C(=O)N[C@@H](CCCNC(=N)N)C(=O)N[C@H](C(=O)NCC(=O)N[C@@H](CO)C(=O)N[C@@H](CC(N)=O)C(=O)N[C@H](C(=O)N[C@@H](Cc1ccc(O)cc1)C(N)=O)[C@@H](C)O)C(C)C)[C@@H](C)O

- EC50 (cAMP production) [1]: 0.809 nM
- EC50 (cAMP production) [2]: 0.157 nM
- Ratio (EC50 hCTR / EC50 hAMYR3) [2]: 5
B5: Peptide 59 (SEQ ID NO: 59) (peptide)
peptide: K([γGlu-C18 diacid])CNTATCATQRLANFLVHSS[Aib]NFGPI[dL]PPTNVGSNTY-NH2
modifications: disulfide 2-7; N-terminus assumed
SMILES: CC[C@H](C)[C@H](NC(=O)[C@@H]1CCCN1C(=O)CNC(=O)[C@H](Cc1ccccc1)NC(=O)[C@H](CC(N)=O)NC(=O)C(C)(C)NC(=O)[C@H](CO)NC(=O)[C@H](CO)NC(=O)[C@H](Cc1c[nH]cn1)NC(=O)[C@@H](NC(=O)[C@H](CC(C)C)NC(=O)[C@H](Cc1ccccc1)NC(=O)[C@H](CC(N)=O)NC(=O)[C@H](C)NC(=O)[C@H](CC(C)C)NC(=O)[C@H](CCCNC(=N)N)NC(=O)[C@H](CCC(N)=O)NC(=O)[C@@H](NC(=O)[C@H](C)NC(=O)[C@@H]1CSSC[C@H](NC(=O)[C@@H](N)CCCCNC(=O)CC[C@H](NC(=O)CCCCCCCCCCCCCCCCC(=O)O)C(=O)O)C(=O)N[C@@H](CC(N)=O)C(=O)N[C@@H]([C@@H](C)O)C(=O)N[C@@H](C)C(=O)N[C@@H]([C@@H](C)O)C(=O)N1)[C@@H](C)O)C(C)C)C(=O)N[C@H](CC(C)C)C(=O)N1CCC[C@H]1C(=O)N1CCC[C@H]1C(=O)N[C@H](C(=O)N[C@@H](CC(N)=O)C(=O)N[C@H](C(=O)NCC(=O)N[C@@H](CO)C(=O)N[C@@H](CC(N)=O)C(=O)N[C@H](C(=O)N[C@@H](Cc1ccc(O)cc1)C(N)=O)[C@@H](C)O)C(C)C)[C@@H](C)O
